Reference: patent publication US20250066460A1

Biological target: complement C1s (UniProt P09871)
Test: cell-based or functional assay

Sequence of UniProt P09871 (P09871 16-688 limits assumed): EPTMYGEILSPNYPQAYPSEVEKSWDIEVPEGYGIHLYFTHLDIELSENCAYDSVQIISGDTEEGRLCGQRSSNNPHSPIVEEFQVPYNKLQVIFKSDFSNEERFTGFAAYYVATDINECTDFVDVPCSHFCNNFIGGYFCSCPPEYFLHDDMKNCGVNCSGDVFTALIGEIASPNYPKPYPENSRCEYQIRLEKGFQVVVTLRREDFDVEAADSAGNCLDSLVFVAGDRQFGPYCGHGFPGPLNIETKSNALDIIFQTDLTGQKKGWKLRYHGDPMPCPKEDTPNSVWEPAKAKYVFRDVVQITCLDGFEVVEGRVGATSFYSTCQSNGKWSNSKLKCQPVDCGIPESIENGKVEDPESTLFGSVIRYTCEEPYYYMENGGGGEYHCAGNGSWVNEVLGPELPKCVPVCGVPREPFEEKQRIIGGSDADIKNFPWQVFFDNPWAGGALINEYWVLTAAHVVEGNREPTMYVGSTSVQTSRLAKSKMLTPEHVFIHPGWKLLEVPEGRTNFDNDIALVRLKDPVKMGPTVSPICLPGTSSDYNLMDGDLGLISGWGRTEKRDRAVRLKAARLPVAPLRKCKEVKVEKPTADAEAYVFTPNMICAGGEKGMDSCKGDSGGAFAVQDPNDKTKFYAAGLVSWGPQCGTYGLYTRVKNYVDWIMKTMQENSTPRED

concentration blocking C3 fixation on sNF02.2 Schwann cells opsonized with MMN-patient serum (flow cytometry): 53 µg/mL | lowest concentration blocking C3 deposition on fixed iPSC-derived motor neurons (titration 3-200 µg/mL): 12 µg/mL
Substance: TNT009 (antibody)
